Laboratory results: patent publication US20100092465A1, “TREATMENT OF GRAFT-VERSUS-HOST DISEASE” (priority 2006, published 2010)

How the values were obtained:
muIL-27 = target: T1, muIL-27 (Mus musculus, UniProt O35228+Q8K3I6); assay: Phospho-STAT3 neutralization assay, mouse spleens, muIL-27; assay type: cell-based; settings: ligand muIL-27 at EC90
T1 sequence (O35228 19-228): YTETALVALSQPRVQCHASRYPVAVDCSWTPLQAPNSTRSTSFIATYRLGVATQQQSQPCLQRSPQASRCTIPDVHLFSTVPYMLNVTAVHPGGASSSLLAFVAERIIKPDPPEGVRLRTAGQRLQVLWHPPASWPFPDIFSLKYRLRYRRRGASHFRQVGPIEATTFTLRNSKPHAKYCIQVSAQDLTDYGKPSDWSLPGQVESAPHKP
T1 sequence (Q8K3I6 29-234): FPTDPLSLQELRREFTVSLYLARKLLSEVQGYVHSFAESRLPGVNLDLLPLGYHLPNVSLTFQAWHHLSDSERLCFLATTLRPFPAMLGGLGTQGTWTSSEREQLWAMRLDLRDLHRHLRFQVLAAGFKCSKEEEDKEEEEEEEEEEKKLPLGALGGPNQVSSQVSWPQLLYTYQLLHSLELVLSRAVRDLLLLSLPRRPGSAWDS
Text: Whole mouse spleens were harvested from C57 B1/6 mice and washed two times with 1×PBS before being plated out at 2×10^5 cells/well in assay media (RPMI 1640 plus 10% fetal bovine serum) in 96-well, round-bottom tissue culture plates. Total human PBMC (peripheral blood mononuclear cells) were thawed from a frozen vial collected from a leukapherisis donation and washed two times with 1×PBS before being plated out at 10^6 cells/well in assay media in 96-well, round-bottom tissue culture plates. […] Following pre-incubation, treatments were added to the plates containing the cells and incubated together at 37° C. for 15 minutes.
Following incubation, cells were washed with ice-cold wash buffer (BIO-PLEX Cell Lysis Kit, BIO-RAD Laboratories, Hercules, Calif.) and put on ice to stop the reaction according to manufacturer's instructions. […]
Capture beads (BIO-PLEX Phospho-Stat3 Assay, BIO-RAD Laboratories) were combined with 50 μL of 1:1 diluted lysates and added to a 96-well filter plate according to manufacture's instructions (BIO-PLEX Phosphoprotein Detection Kit, BIO-RAD Laboratories). […] After the final wash, beads were resuspended in 125 μL/well of bead suspension buffer, shaken for 30 seconds, and read on an array reader (BIO-PLEX, BIO-RAD Laboratories) according to the manufacture's instructions. Data were analyzed using analytical softward (BIO-PLEX MANAGER 3.0, BIO-RAD Laboratories). […]

[1] = target: T2, mouse ligand (single-chain IL27) (Mus musculus, UniProt O35228+Q8K3I6); assay: SPR kinetics of soluble receptors with mouse IL27 ligand; settings: binding with mouse ligand; gp130 not included
T2 construct: amino-terminal peptide tag (FLAG in lot A1426F) (N)
T2 sequence (O35228+Q8K3I6 with tags, fused parts or gaps): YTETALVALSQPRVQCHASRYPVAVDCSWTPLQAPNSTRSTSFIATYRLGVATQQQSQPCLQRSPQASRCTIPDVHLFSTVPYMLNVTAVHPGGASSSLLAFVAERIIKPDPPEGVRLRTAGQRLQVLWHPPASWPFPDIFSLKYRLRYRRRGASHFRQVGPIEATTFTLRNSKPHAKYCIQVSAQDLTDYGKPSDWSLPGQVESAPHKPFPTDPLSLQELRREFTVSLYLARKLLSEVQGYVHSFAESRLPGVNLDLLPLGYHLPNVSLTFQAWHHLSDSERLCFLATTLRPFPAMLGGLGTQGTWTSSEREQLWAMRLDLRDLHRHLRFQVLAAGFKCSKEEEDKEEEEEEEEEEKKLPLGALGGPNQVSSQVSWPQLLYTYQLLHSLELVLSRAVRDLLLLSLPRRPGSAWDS
Description: Kinetic rate and affinity constant values for the mouse (IL27RAm(mFc1), Example 3) and human (IL27RA-Fc5, Example 4) soluble receptors were obtained by surface plasmon resonance (SPR) using an automated instrument (BIACORE 3000; Biacore International AB, Uppsala, Sweden). The mouse soluble receptor was tested against mouse ligand (lot A1418F), and the human soluble receptor was tested against both mouse (A1426F) and human (A1534F) ligands. For determination of the kinetic rate constants for the receptor-ligand interactions, the gp130 molecule was not included as part of the receptor complex.
The IL27 ligands used in this study were single-chain molecules comprising EBI3 connected by its C-terminus to the N-terminus of IL-27 p28 via a polypeptide linker. Each of the ligands included an amino-terminal peptide tag.
For the mouse IL27RA study, the soluble receptor was captured onto the chip surface by an isotype-specific anti-mouse Fc antibody (obtained from Jackson ImmunoResearch Laboratories, Inc., West Grove, Pa.) covalently immobilized to the chip (BIACORE CM5 chip) using the standard amine coupling protocol specified by the instrument manufacturer. […]
All data were assessed using software provided with the instrument (BIACORE Evaluation software v. 3.2). […]

“human IL-27RA-Fc5: human IL27RA extracellular domain (amino acids 1 to 512 of SEQ ID NO:5) fused to Fc5, effector minus human gamma1 Fc; SEQ ID NO:3” showed an IC50 (muIL-27) of 0.14 nM, a ka [1] of 8.1e+06 M⁻¹ s⁻¹ and a kd [1] of 0.0018 s⁻¹.
